This is an account of results in paper PMC3950709 (Nucleic Acids Research, 2013).

Changes are numbered by the printed parent chain. Names may count otherwise. Like-named read-outs stand apart in the source and are kept apart here.

The target in data set [1] is native rabbit IFIT1B (native rIFIT1B) (rabbit (endogenous in rabbit reticulocyte lysate)). The experiment in a line: native gel or EMSA.
Data set [2] addresses rabbit IFIT1B (rIFIT1B), recombinant (rabbit). The experiment in a line: native gel or EMSA.
In a further data set the target is T1, hIFIT3 (Homo sapiens, UniProt O14879 1-490).
T1 sequence: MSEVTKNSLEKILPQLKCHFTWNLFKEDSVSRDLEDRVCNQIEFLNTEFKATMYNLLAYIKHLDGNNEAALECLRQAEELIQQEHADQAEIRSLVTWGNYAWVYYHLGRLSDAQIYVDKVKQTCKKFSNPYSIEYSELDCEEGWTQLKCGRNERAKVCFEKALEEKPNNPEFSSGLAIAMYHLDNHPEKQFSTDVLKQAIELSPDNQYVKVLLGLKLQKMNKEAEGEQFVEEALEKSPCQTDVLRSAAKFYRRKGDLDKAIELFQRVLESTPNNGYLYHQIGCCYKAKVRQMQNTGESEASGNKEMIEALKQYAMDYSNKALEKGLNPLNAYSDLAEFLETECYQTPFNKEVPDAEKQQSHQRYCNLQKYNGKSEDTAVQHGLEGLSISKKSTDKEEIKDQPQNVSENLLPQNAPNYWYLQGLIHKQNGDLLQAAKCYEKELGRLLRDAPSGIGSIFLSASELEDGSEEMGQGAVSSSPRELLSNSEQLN
The experiment in a line: EMSA. For orientation: Mobility shift assays separate free from complexed probe on a gel.

For a further data set, the target named is T2, hIFIT5 (Homo sapiens, UniProt Q13325 1-482).
T2 sequence: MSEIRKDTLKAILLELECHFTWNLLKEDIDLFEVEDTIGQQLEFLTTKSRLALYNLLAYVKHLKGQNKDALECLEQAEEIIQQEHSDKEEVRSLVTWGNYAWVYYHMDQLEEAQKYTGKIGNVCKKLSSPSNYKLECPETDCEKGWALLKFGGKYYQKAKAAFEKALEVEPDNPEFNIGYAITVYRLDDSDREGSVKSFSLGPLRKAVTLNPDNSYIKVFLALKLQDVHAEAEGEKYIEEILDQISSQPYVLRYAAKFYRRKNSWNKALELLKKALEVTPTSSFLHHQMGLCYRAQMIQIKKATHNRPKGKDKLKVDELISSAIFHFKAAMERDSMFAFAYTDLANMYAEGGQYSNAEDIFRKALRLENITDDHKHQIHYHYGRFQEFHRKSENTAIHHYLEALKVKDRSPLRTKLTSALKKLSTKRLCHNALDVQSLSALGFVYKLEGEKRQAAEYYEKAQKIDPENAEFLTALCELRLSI
The experiment in a line: EMSA.

Another data set deals with T3, hIFIT2 (Homo sapiens, UniProt P09913 1-472).
T3 sequence: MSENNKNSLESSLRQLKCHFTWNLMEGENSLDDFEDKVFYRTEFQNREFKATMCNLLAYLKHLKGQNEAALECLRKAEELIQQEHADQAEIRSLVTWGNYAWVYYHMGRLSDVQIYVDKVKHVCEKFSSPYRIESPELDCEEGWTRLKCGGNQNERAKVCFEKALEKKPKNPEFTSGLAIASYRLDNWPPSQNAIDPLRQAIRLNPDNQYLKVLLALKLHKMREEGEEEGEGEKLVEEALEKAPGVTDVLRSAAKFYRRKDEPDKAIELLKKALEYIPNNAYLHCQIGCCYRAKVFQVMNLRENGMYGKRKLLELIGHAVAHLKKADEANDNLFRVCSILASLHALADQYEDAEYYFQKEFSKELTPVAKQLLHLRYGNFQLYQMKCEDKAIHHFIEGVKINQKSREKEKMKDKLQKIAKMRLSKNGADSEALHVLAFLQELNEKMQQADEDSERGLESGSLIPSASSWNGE
Briefly: EMSA.

Data set [3] addresses T4, hIFIT1 (Homo sapiens, UniProt P09914 1-478).
T4 sequence: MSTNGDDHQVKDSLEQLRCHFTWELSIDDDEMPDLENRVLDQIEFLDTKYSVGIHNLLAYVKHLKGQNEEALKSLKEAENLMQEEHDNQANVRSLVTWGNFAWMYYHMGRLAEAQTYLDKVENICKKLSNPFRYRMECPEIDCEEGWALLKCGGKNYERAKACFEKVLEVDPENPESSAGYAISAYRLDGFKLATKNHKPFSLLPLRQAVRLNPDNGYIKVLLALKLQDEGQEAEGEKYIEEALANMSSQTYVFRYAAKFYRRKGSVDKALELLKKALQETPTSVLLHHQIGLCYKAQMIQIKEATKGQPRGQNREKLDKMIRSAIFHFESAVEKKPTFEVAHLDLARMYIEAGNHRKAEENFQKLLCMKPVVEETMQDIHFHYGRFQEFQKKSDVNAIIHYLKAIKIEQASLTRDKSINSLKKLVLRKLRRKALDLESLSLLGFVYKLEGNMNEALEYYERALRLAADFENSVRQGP
Briefly: EMSA.

The target in data set [4] is T4, hIFIT1. Briefly: EMSA. This is another data set of the same source.
Data set [5] deals with the molecule itself. Briefly: native gel or EMSA.
Data set [6] concerns the molecule itself. Briefly: native gel or EMSA. The source holds these as a separate data set.

For orientation: stoichiometry N means the number of molecules, sites or subunits per partner or assembly. For the molecule “native rabbit IFIT1B (native rIFIT1B) (natural protein)”, the stoichiometry N in [1] was found to be 2.
For “rabbit IFIT1B (rIFIT1B), recombinant (natural protein)”, the stoichiometry N in data set [2] came out at 2.

B1: cap0 62-nt β-globin(G) RNA (ssRNA)
RNA: GACACUUGCUUUUGACACAACUGUGUUUACUUGCAAUCCCCCAAAACAGACAGAAUGGUGCA
modifications: m7Gppp cap0
For the molecule B1, the binding result in the data set with hIFIT3 was “no binding”; with hIFIT5, “no binding”; in the data set with hIFIT2 it was “no binding”; in the data set with hIFIT1 [3] it was “binds”.

B2: cap1 62-nt β-globin(G) RNA (ssRNA)
RNA: B1 RNA
modifications: m7GpppGm cap1
Take B2: the binding result with hIFIT1 [4], in the data set with hIFIT3, with hIFIT5 and with hIFIT2 was “no binding” each time.

B3: human IFIT2 (hIFIT2), recombinant (natural protein, UniProt P09913 1-472, looked up)
chain: T3 sequence
For the molecule B3, the “stoichiometry N” value in “native gel or EMSA [5]” was determined as 2.

B4: human IFIT1 (hIFIT1), recombinant wild type (natural protein, UniProt P09914 1-478, looked up)
chain: T4 sequence
Regarding B4, in the data set “native gel or EMSA [6]”, the binding result was “binds”.

B5: hIFIT1 Y50A (natural protein, human, UniProt P09914 1-478, looked up)
chain: T4 sequence with Y50A
As to B5, the binding result in “native gel or EMSA [5]” was “binds”.

B6: hIFIT1 Y218A (natural protein, human, UniProt P09914 1-478, looked up)
chain: T4 sequence with Y218A
Take B6: in the data set “native gel or EMSA [5]”, the binding result was “binds”.

B7: hIFIT1 F45A (natural protein, human, UniProt P09914 1-478, looked up)
chain: T4 sequence with F45A
Regarding B7, the binding result in the data set “native gel or EMSA [5]” is “binds”.

B8: hIFIT1 F45A/Y50A (natural protein, human, UniProt P09914 1-478, looked up)
chain: T4 sequence with F45A, Y50A
For B8, in the data set “native gel or EMSA [5]”, the binding result is “binds”.

B9: hIFIT1 W147L (natural protein, human, UniProt P09914 1-478, looked up)
chain: T4 sequence with W147L
As for B9, the binding result in the data set “native gel or EMSA [5]” is given as “binds”.

B10: human IFIT3 (hIFIT3), recombinant (natural protein, UniProt O14879 1-490, looked up)
chain: T1 sequence
On to B10, for which the binding result in the data set “native gel or EMSA [5]” is reported as “binds”.
